US20180170995A1 (LEVICEPT, published 2018)

Molecular target: TrkB receptor (UniProt Q16620 32-822, limits assumed)
Test: cell-based or functional assay

Sequence of TrkB receptor (Q16620 32-822 limits assumed): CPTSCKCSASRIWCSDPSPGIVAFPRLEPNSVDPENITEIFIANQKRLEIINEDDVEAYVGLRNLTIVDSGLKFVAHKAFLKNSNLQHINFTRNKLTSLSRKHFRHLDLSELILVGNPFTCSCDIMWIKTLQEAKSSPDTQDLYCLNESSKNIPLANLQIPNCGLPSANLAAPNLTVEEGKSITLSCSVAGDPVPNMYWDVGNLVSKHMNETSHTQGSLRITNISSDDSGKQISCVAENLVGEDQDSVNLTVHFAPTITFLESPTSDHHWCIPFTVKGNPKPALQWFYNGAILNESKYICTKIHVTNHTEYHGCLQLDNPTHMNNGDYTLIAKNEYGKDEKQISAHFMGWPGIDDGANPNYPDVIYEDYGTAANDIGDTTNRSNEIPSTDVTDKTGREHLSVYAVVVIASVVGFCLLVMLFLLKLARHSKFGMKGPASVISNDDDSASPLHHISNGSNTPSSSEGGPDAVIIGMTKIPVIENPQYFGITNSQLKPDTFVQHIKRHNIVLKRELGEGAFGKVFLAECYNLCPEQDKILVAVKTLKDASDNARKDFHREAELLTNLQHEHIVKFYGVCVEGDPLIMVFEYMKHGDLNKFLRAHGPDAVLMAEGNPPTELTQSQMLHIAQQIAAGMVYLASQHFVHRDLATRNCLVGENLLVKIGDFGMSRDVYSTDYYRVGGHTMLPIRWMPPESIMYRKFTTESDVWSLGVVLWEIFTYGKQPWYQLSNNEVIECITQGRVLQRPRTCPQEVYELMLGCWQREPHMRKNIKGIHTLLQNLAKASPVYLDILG

B1: brain-derived neurotrophic factor (BDNF) (ligand, UniProt P23560 129-247, looked up)
chain: HSDPARRGELSVCDSISEWVTAADKKTAVDMSGGTVTVLEKVPVSKGQLKQYFYETKCNPMGYTKEGCRGIDKRHWNSQCRTTQSYVRALTMDSKKRIGWRFIRIDTSCVCTLTIKRGR
- EC50, BDNF-induced activation of TrkB (luminescence, DiscoverX kit cells): 700 pM

B2: neurotrophin-4 (NT-4) (ligand, UniProt P34130 81-210, looked up)
chain: GVSETAPASRRGELAVCDAVSGWVTDRRTAVDLRGREVEVLGEVPAAGGSPLRQYFFETRCKADNAEEGGPGAGGGGCRGVDRRHWVSECKAKQSYVRALTADAQGRVGWRWIRIDTACVCTLLSRTGRA
- EC50, NT-4-induced activation of TrkB (luminescence, DiscoverX kit cells): 12 pM
